Experiments:
Assay in all cases: IEDB peptide-MHC binding, purified MHC/competitive/radioactivity; filed as Kd, often an IC50 or EC50 that approximates it; ≥ and ≤ were set here for values at or beyond the usual limits of such assays
HLA-A*31:01 = molecular target: HLA-A*31:01
HLA-A*68:01 = molecular target: HLA-A*68:01
HLA-A*11:01 = molecular target: HLA-A*11:01
HLA-A*03:01 = molecular target: HLA-A*03:01
HLA-A*33:01 = molecular target: HLA-A*33:01
[1] = source organism: Dengue virus 3 Martinique/1243/1999
[2] = source organism: Dengue virus 4 Dominica/814669/1981
[3] = source organism: SARS coronavirus Tor2
[4] = source organism: Vaccinia virus WR
[5] = source organism: Mammarenavirus guanaritoense
[6] = source organism: Dengue virus 1 Brazil/97-11/1997

Sequence	Kd (HLA-A*68:01; [4]) [nM]	Kd (HLA-A*11:01; [4]) [nM]	Kd (HLA-A*03:01; [4]) [nM]	Kd (HLA-A*33:01; [4]) [nM]	Kd (HLA-A*31:01; [4]) [nM]	other results
AALAFHLTSR						Kd (HLA-A*31:01; [1]): 17.5 nM
AALSEGVYR						Kd (HLA-A*31:01; [2]): 169 nM
AAMQRKLEK						Kd (HLA-A*68:01; [3]): ≥ 77700 nM; Kd (HLA-A*11:01; [3]): 257 nM; Kd (HLA-A*03:01; [3]): 7010 nM; Kd (HLA-A*33:01; [3]): ≥ 77700 nM; Kd (HLA-A*31:01; [3]): ≥ 21200 nM
AARILSEKRK	8050	3140	7880	≥ 70000	≥ 63700	
ACRCGRFQK						Kd (HLA-A*11:01; [5]): 5130 nM; Kd (HLA-A*03:01; [5]): 3570 nM; Kd (HLA-A*33:01; [5]): ≥ 27300 nM; Kd (HLA-A*31:01; [5]): 1440 nM
AISGDDCVVK						Kd (HLA-A*11:01; source organism: Dengue virus 2 Jamaica/1409/1983): 2070 nM
ALCEKALKY						Kd (HLA-A*68:01; [3]): 13000 nM; Kd (HLA-A*11:01; [3]): 1440 nM; Kd (HLA-A*03:01; [3]): 234 nM; Kd (HLA-A*33:01; [3]): ≥ 35800 nM; Kd (HLA-A*31:01; [3]): ≥ 65100 nM
AMDEFIQRYK						Kd (HLA-A*68:01; [3]): 8300 nM; Kd (HLA-A*11:01; [3]): 59 nM; Kd (HLA-A*03:01; [3]): 39 nM; Kd (HLA-A*33:01; [3]): 13300 nM; Kd (HLA-A*31:01; [3]): 221 nM
AQCFKMFYK						Kd (HLA-A*68:01; [3]): 177 nM; Kd (HLA-A*11:01; [3]): 2.52 nM; Kd (HLA-A*03:01; [3]): 25.6 nM; Kd (HLA-A*33:01; [3]): 878 nM; Kd (HLA-A*31:01; [3]): 6.24 nM
ASKTINALVY	≥ 41800	1010	761	≥ 70000	11100	
AVFKNSFLGK						Kd (HLA-A*68:01; source organism: Variola virus): ≥ 70100 nM; Kd (HLA-A*11:01; source organism: Variola virus): ≥ 69700 nM; Kd (HLA-A*03:01; source organism: Variola virus): ≥ 70000 nM; Kd (HLA-A*33:01; source organism: Variola virus): ≥ 70000 nM; Kd (HLA-A*31:01; source organism: Variola virus): ≥ 70000 nM
CLEWLRAKRK	≥ 57300	19500	1000	11300	2720	
CTTTGEHRR						Kd (HLA-A*68:01; source organism: Dengue virus 2 Peru/IQT2913/1996): 27.6 nM
DADPPIPYSR	509	16400	≥ 70100	2690	10100	
DARYCSEFIR	249	≥ 37200	≥ 70100	24.3	1130	
DICSKHMDAR	605	≥ 69800	≥ 47100	126	1480	
DLPSGFNTLK						Kd (HLA-A*68:01; [3]): 11 nM; Kd (HLA-A*11:01; [3]): 1220 nM; Kd (HLA-A*03:01; [3]): 2300 nM; Kd (HLA-A*33:01; [3]): 10400 nM; Kd (HLA-A*31:01; [3]): ≥ 36700 nM
DSIKDVIHDY	10200	5140	≥ 70100	≥ 70000	15400	
DVDIYDAVR	179	≥ 77900	≥ 53300	2280	14000	

Sequence	Kd (HLA-A*68:01; [4]) [nM]	Kd (HLA-A*11:01; [4]) [nM]	Kd (HLA-A*03:01; [4]) [nM]	Kd (HLA-A*33:01; [4]) [nM]	Kd (HLA-A*31:01; [4]) [nM]	other results
DVQRTRCKY	9190	≥ 77900	≥ 53900	≥ 35300	≥ 77900	
EFKEFAAGRR						Kd (HLA-A*33:01; [6]): 37.6 nM
EIIFLKLFK	0.699	1.25	16.1	99.3	602	
EIIFLKLFKK	5.36	17.7	88.2	129	20	
EIKQGRVNK	88.4	517	640	3260	≥ 51300	
EKVETWALR						Kd (HLA-A*68:01; [1]): ≥ 22900 nM; Kd (HLA-A*33:01; [1]): 74.9 nM
FALKKLIIDR	550	2100	≥ 70100	3300	1070	
FIDRGSIKIK	860	708	495	3960	2230	
FTQHLLNIR	≥ 77700	≥ 77900	≥ 78000	≥ 77700	≥ 77900	
GSWATSSFR	54.1	7.38	111	226	0.56	
GYVLGVFLR						Kd (HLA-A*33:01; [2]): 1820 nM; Kd (HLA-A*31:01; [2]): 53.2 nM
HLKCRLKMDK						Kd (HLA-A*03:01; [6]): 68 nM
IANSNIIKNK	212	39.5	47.2	≥ 39300	19900	
IFFTTSLFLH						Kd (HLA-A*68:01; [5]): 3490 nM; Kd (HLA-A*11:01; [5]): 17600 nM; Kd (HLA-A*03:01; [5]): 1030 nM; Kd (HLA-A*33:01; [5]): 1040 nM; Kd (HLA-A*31:01; [5]): 1360 nM
IFMRDWNSK	2390	8210	11700	8940	8520	
IQRFSSLRR	11900	1010	125	≥ 30400	55.9	
IQVTISSYK						Kd (HLA-A*68:01; [3]): 274 nM; Kd (HLA-A*11:01; [3]): 10.8 nM; Kd (HLA-A*03:01; [3]): 15.4 nM; Kd (HLA-A*33:01; [3]): 7950 nM; Kd (HLA-A*31:01; [3]): 139 nM
KAEMQLKIDK	≥ 25200	125	3720	19800	3270	
KFGNSINVK	≥ 46400	6460	7140	≥ 77700	618	

Source: the Immune Epitope Database (IEDB)
